Results from publication PMC9813255 (2023).

Tests used:
[1] = target: human nucleolin (His-tag fusion protein) (human, UniProt P19338 1-710); experiment: SPR; fibrillarin analyte, nucleolin immobilized
[2] = target: T1, full-length human PQBP5 (His-tag fusion protein) (human, UniProt Q9BSC4-1 1-688); experiment: SPR; fibrillarin analyte, PQBP5 immobilized
T1 chain: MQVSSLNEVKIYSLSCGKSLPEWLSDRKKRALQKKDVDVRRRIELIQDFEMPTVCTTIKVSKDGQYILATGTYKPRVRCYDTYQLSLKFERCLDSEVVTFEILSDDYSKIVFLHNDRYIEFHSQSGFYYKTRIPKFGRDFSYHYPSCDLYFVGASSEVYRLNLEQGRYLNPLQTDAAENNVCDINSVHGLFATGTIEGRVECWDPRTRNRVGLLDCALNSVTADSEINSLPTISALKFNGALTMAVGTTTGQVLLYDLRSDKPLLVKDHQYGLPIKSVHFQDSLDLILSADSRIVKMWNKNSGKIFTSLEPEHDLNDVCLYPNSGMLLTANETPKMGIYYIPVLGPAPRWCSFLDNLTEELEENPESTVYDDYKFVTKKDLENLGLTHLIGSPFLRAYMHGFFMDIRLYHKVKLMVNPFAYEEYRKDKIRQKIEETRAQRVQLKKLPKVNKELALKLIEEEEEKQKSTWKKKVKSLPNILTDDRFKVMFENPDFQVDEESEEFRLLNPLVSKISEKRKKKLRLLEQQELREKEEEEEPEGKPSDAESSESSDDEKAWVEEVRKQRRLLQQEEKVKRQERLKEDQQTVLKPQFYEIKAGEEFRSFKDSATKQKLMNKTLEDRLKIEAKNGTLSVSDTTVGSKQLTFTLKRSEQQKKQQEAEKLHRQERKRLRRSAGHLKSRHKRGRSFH

Chain of human nucleolin (His-tag fusion protein) (P19338 whole entry, the tested form may be a part): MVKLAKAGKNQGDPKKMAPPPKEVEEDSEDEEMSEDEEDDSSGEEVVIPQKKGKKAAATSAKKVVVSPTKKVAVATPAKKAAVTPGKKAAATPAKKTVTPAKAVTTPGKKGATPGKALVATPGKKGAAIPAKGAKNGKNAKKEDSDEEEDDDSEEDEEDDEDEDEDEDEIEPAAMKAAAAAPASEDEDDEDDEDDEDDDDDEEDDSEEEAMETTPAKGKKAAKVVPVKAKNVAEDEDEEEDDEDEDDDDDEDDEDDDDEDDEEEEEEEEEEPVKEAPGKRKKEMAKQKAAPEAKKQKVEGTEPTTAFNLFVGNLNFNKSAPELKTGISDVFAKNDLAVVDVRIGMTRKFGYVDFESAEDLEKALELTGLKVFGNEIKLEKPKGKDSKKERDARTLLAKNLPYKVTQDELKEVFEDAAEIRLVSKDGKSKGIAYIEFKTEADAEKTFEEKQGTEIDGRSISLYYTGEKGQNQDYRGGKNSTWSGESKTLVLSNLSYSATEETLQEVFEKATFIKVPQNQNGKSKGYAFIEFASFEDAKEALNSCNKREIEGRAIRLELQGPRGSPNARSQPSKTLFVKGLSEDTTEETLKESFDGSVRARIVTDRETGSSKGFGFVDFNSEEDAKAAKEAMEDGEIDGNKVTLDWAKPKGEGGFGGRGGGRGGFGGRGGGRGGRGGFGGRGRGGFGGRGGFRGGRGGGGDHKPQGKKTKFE

Kd [1]: 2.78 nM
Kd [2]: 10 nM
B1: human fibrillarin (His-tag fusion protein) (natural protein)
chain: MKPGFSPRGGGFGGRGGFGDRGGRGGRGGFGGGRGRGGGFRGRGRGGGGGGGGGGGGGRGGGGFHSGGNRGRGRGGKRGNQSGKNVMVEPHRHEGVFICRGKEDALVTKNLVPGESVYGEKRVSISEGDDKIEYRAWNPFRSKLAAAILGGVDQIHIKPGAKVLYLGAASGTTVSHVSDIVGPDGLVYAVEFSHRSGRDLINLAKKRTNIIPVIEDARHPHKYRMLIAMVDVIFADVAQPDQTRIVALNAHTFLRNGGHFVISIKANCIDSTASAEAVFASEVKKMQQENMKPQEQLTLEPYERDHAVVVGVYRPPPKVKN
